Read-outs that look alike come from different tables or passages of the source.
How the values were obtained:
Experiment in all cases: EMSA
CsrA [1] = target: T1, CsrA (Escherichia coli, UniProt P69913 1-61)
CsrA [2] = target: T1, CsrA; remark: listed apart in the source
CsrA [3] = target: T1, CsrA; remark: listed apart in the source

T1 sequence (P69913 whole entry): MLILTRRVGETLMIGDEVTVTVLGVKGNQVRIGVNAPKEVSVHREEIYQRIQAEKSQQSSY

B1: uxuB 5' UTR truncation mutant (ssRNA)
RNA: GGGAUAAUGCGCUUUCUUUAGCCGUUAAUAUCCACCGGCAUGGCUGCGCGCCGUGCCGGUUCCUUCUUGCUUGGCGUCACUCUUUGAAGACGCAUUCUGCAGUUUACGA
binding result (CsrA [1]): no binding

B2: uxuB leader wild type (ssRNA)
RNA: GGGAUAAUGCGCUUUCUUUAGCCGUUAAUAUCCACCGGCAUGGCUGCGCGCCGUGCCGGUUCCUUCUUCCUUGCCGUCACUCUUUGAAGACGGAUUCUGGAGUUUACGAUGACUACUAUUGUUGACAGCAAUCUGCCGGUUGCCCGCCCGUCAUGGGAUCAUUCUCGUCUGGAAUCACGCAUUGUGCAUCUCGGUUGCGGGGCGUUUC
Kd (CsrA [2]): ~83.2 nM

B3: uxuB CDS mutant (DOWNSTR mut) (ssRNA)
RNA: GGGAUAAUGCGCUUUCUUUAGCCGUUAAUAUCCACCGGCAUGGCUGCGCGCCGUGCCGGUUCCUUCUUCCUUGCCGUCACUCUUUGAAGACGGAUUCUGGAGUUUACGAUGACUACUAUUGUUGACAGCAAUCUGCCGGUUGCCCGCCCGUCAUUUGAUCAUUCUCGUCUGCAAUCACGCAUUGUGCAUCUAGGUUGCGGGGCGUUUCGCAUGC
apparent K (half saturation) (CsrA [2]): ~158 nM

B4: uxuB no GGAs mutant (ssRNA)
RNA: GGGAUAAUGCGCUUUCUUUAGCCGUUAAUAUCCACCGGCAUGGCUGCGCGCCGUGCCGGUUCCUUCUUGCUUGGCGUCACUCUUUGAAGACGCAUUCUGCAGUUUACGAUGACUACUAUUGUUGACAGCAAUCUGCCGGUUGCCCGCCCGUCAUUUGAUCAUUCUCGUCUGCAAUCACGCAUUGUGCAUCUAGGUUGCGGGGCGUUUCGCAUGC
apparent K (half saturation) (CsrA [2]): ~193 nM

B5: uxuB CDS truncation wild type (ssRNA)
RNA: GGGAUAAUAUGACUACUAUUGUUGACAGCAAUCUGCCGGUUGCCCGCCCGUCAUGGGAUCAUUCUCGUCUGGAAUCACGCAUUGUGCAUCUCGGUUGCGGGGCGUUUC
Kd (CsrA [3]): ~164 nM
